Source: patent US20090149339A1 (published 2009)
Ends that are not written are not given here. * marks the point of attachment. Biotin = O=C1N[C@H]2[C@H](CS[C@H]2CCCCC(=O)*)N1

How the values were obtained:
[1] = target: T1, GST-41.8 kD PDZ domain fusion protein (hypothetical 41.8 kD protein AA4-85; PDZ domain 1 of 1) (UniProt P08515 1-218 = GST); assay: A assay
T1 construct: also called hypoth

[2] = target: T2, GST-RGS12 PDZ domain fusion protein (human regulator of G-protein signalling 12 AA35-103; PDZ domain 1 of 1) (human, UniProt P08515 1-218 = GST); assay: A assay
T2 construct: also called RSG12
T2 sequence (P08515 1-218, tags or fused parts left off): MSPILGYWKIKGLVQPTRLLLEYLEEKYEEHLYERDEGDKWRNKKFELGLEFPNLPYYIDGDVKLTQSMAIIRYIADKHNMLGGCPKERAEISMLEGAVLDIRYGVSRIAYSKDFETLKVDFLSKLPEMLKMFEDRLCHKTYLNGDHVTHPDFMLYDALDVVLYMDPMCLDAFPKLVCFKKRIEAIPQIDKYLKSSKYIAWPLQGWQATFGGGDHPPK

[3] = target: T3, GST-DVL1 PDZ domain fusion protein (human dishevelled segment polarity protein homolog AA248-340); PDZ domain … (human, UniProt P08515 1-218 = GST); assay: A assay
T3 sequence (P08515 1-218, tags or fused parts left off): as above

[4] = target: T4, GST-CASK PDZ domain fusion protein (CASK AA495-584; PDZ domain 1 of 1) (mouse, UniProt P08515 1-218 = GST); assay: A/G assays
T4 construct: also called mCASK

[5] = target: GST-LIM PDZ domain fusion protein (Human LIM protein AA29-112; PDZ domain 1 of 1) (human, UniProt P08515 1-218 = GST); assay: A/G assays
Sequence of GST-LIM PDZ domain fusion protein (Human LIM protein AA29-112; PDZ domain 1 of 1) (P08515 1-218, tags or fused parts left off): as above

[6] = target: GST-LIMK2 PDZ domain fusion protein (human LIM domain kinase 2 AA185-275; PDZ domain 1 of 1) (human, UniProt P08515 1-218 = GST); assay: A/G assays
Sequence of GST-LIMK2 PDZ domain fusion protein (human LIM domain kinase 2 AA185-275; PDZ domain 1 of 1) (P08515 1-218, tags or fused parts left off): as above

[7] = target: T5, GST-MPP2 PDZ domain fusion protein (maguk p55 subfamily member 2 (DLG2) AA185-273; PDZ domain 1 of 1) (UniProt P08515 1-218 = GST); assay: A/G assays
T5 construct: also called MMP2
T5 sequence (P08515 1-218, tags or fused parts left off): as above

[8] = target: GST-NOS1 PDZ domain fusion protein (human neuronal nitric oxide synthase; PDZ domain 1 of 1) (human, UniProt P08515 1-218 = GST); assay: A/G assays
[9] = target: GST-AF6 PDZ domain fusion protein (af-6 protein AA985-1077; PDZ domain 1 of 1) (UniProt P08515 1-218 = GST); assay: A/G assays
Sequence of GST-AF6 PDZ domain fusion protein (af-6 protein AA985-1077; PDZ domain 1 of 1) (P08515 1-218, tags or fused parts left off): as above

[10] = target: GST-PTN-4 PDZ domain fusion protein (protein-tyrosine phosphatase meg1 AA774-862; PDZ domain 1 of 1) (UniProt P08515 1-218 = GST); assay: A/G assays
Sequence of GST-PTN-4 PDZ domain fusion protein (protein-tyrosine phosphatase meg1 AA774-862; PDZ domain 1 of 1) (P08515 1-218, tags or fused parts left off): as above

[11] = target: GST-prIL16 PDZ domain fusion protein (putative interleukin 16 precursor AA170-383; PDZ domains 1-2 of 2) (UniProt P08515 1-218 = GST); assay: A/G assays
Sequence of GST-prIL16 PDZ domain fusion protein (putative interleukin 16 precursor AA170-383; PDZ domains 1-2 of 2) (P08515 1-218, tags or fused parts left off): as above

[12] = target: T6, GST-KIAA0559 PDZ domain fusion protein (KIAA0559 AA766-870; PDZ1 of 1) (UniProt P08515 1-218 = GST); assay: A/G assays
T6 construct: also called K559
T6 sequence (P08515 1-218, tags or fused parts left off): as above

[13] = target: GST-MPP1 PDZ domain fusion protein (55 Kd erythrocyte membrane protein AA101-186; PDZ domain 1 of 1) (UniProt P08515 1-218 = GST); assay: A/G assays
Sequence of GST-MPP1 PDZ domain fusion protein (55 Kd erythrocyte membrane protein AA101-186; PDZ domain 1 of 1) (P08515 1-218, tags or fused parts left off): as above

[14] = target: T7, GST-KIAA0316 PDZ domain fusion protein (KIAA0316 AA197-284; PDZ domain 1 of 1) (UniProt P08515 1-218 = GST); assay: A/G assays
T7 construct: also called K316
T7 sequence (P08515 1-218, tags or fused parts left off): as above

[15] = target: T8, GST-TAX40 PDZ domain fusion protein (human tax interaction protein 40 AA35-137; PDZ domain 1 of 1) (human, UniProt P08515 1-218 = GST); assay: A/G assays
T8 construct: also called TX 40
T8 sequence (P08515 1-218, tags or fused parts left off): as above

[16] = target: GST-TIAM1 PDZ domain fusion protein (T-lymphoma invasion and metastasis inducing protein 1 AA1001-1088); PDZ 1 … (UniProt P08515 1-218 = GST); assay: A/G assays
Sequence of GST-TIAM1 PDZ domain fusion protein (T-lymphoma invasion and metastasis inducing protein 1 AA1001-1088); PDZ 1 … (P08515 1-218, tags or fused parts left off): as above

[17] = target: T9, GST-KIAA0303 PDZ domain fusion protein (KIAA0303 AA652-742; PDZ domain 1 of 1) (UniProt P08515 1-218 = GST); assay: A/G assays
T9 construct: also called K303
T9 sequence (P08515 1-218, tags or fused parts left off): as above

[18] = target: T10, GST-CBP PDZ domain fusion protein (Cytohesin binding protein HE AA85-175; PDZ domain 1 of 1) (UniProt P08515 1-218 = GST); assay: A/G assays
T10 construct: also called Prot
T10 sequence (P08515 1-218, tags or fused parts left off): as above

[19] = target: GST-MINT3 PDZ domain fusion protein (human MINT3 AA11-52; PDZ domain 1 of 1) (human, UniProt P08515 1-218 = GST); assay: A/G assays
[20] = target: T11, GST-TAX2 PDZ domain fusion protein (human tax interaction protein 2 AA54-140; PDZ domain 1 of 1) (human, UniProt P08515 1-218 = GST); assay: A/G assays
T11 construct: also called TX 2
T11 sequence (P08515 1-218, tags or fused parts left off): as above

[21] = target: T12, GST-TAX33 PDZ domain fusion protein (tax interaction protein 33 AA73-162; PDZ domain 1 of 1) (UniProt P08515 1-218 = GST); assay: A/G assays
T12 construct: also called TX33
T12 sequence (P08515 1-218, tags or fused parts left off): as above

[22] = target: T13, GST-SYN1a PDZ domain fusion protein (alpha1-syntrophin AA96-189; PDZ domain 1 of 1) (UniProt P08515 1-218 = GST); assay: A/G assays
T13 construct: also called SYN 1 alpha; SYNTR 1 alpha
T13 sequence (P08515 1-218, tags or fused parts left off): as above

[23] = target: T14, GST-TAX43 PDZ domain fusion protein (human tax interaction protein 43 AA15-85; PDZ domain 1 of 1) (human, UniProt P08515 1-218 = GST); assay: A/G assays
T14 construct: also called TX 43
T14 sequence (P08515 1-218, tags or fused parts left off): as above

[24] = target: T15, GST-PSD95 PDZ domain fusion protein (human post-synaptic density protein 95 AA387-724; PDZ domains 1-3 of 3) (human, UniProt P08515 1-218 = GST); assay: A and G assays
T15 sequence (P08515 1-218, tags or fused parts left off): as above

[25] = target: T16, GST-NeDLG PDZ domain fusion protein (presynaptic protein sao102, neuroendocrine-dlg; PDZ domains 1-2 of 3) (UniProt P08515 1-218 = GST); assay: A and G assays
T16 construct: also called NeDLG1
T16 sequence (P08515 1-218, tags or fused parts left off): as above

[26] = target: T1, GST-41.8 kD PDZ domain fusion protein …; assay: A/G assays
[27] = target: T2, GST-RGS12 PDZ domain fusion protein …; assay: A/G assays
[28] = target: T3, GST-DVL1 PDZ domain fusion protein …; assay: A/G assays
[29] = target: T15, GST-PSD95 PDZ domain fusion protein …; assay: A/G assays
[30] = target: T16, GST-NeDLG PDZ domain fusion protein …; assay: A/G assays
[31] = target: T16, GST-NeDLG PDZ domain fusion protein …; assay: G assay
[32] = target: T13, GST-SYN1a PDZ domain fusion protein …; assay: G assay
[33] = target: T1, GST-41.8 kD PDZ domain fusion protein …; assay: A/G assays; remark: listed apart in the source

| Binder | binding result [4] | binding result [5] | binding result [6] | binding result [7] | binding result [8] | binding result [9] | binding result [10] | binding result [11] | binding result [12] | binding result [13] | binding result [14] | binding result [15] | binding result [16] | binding result [17] | binding result [18] | binding result [19] | binding result [20] | binding result [21] | binding result [22] | binding result [23] | other results |
| --- | --- | --- | --- | --- | --- | --- | --- | --- | --- | --- | --- | --- | --- | --- | --- | --- | --- | --- | --- | --- | --- |
| Biotin-TTNNNPNSAVNIKKIFTDV [KV1.3 C-terminal PL peptide AA33L, biotinylated] | no binding | no binding | no binding | no binding | no binding | no binding | no binding | no binding | no binding | no binding | no binding | no binding | no binding | no binding | no binding | no binding | no binding | no binding | no binding | no binding | binding result [1]: binds; binding result [2]: binds; binding result [3]: binds; binding result [24]: binds; binding result [25]: binds |
| Biotin-DLGNMEENKKLEENNHKTEA [CD166 (CD6L) C-terminal PL peptide AA20L, biotinylated] | no binding | no binding | no binding | no binding | no binding | no binding | no binding | no binding | no binding | no binding | no binding | no binding | no binding | no binding | no binding | no binding | no binding | no binding | no binding | no binding | binding result [26]: no binding; binding result [27]: no binding; binding result [28]: no binding; binding result [29]: no binding; binding result [30]: no binding |
| Biotin-ENLAPVTTFGKTNGYIA [CD148 (DEP-1) C-terminal PL peptide AA19L (ends GYIA), biotinylated] | no binding | no binding | no binding | no binding | no binding | no binding | no binding | no binding | no binding | no binding | no binding | no binding | no binding | no binding | no binding | no binding | no binding | no binding | no binding | no binding | binding result [26]: no binding; binding result [27]: no binding; binding result [28]: no binding; binding result [29]: no binding; binding result [30]: no binding |
| Biotin-LASKSAEEGKQIPDSLSTDL [DOCK2 C-terminal PL peptide AA40L, biotinylated] | no binding | no binding | no binding | no binding | no binding | no binding | no binding | no binding | no binding | no binding | no binding | no binding | no binding | no binding | no binding | no binding | no binding | no binding |  | no binding | binding result [31]: binds; binding result [32]: binds; binding result [33]: no binding; binding result [27]: no binding; binding result [28]: no binding; binding result [24]: binds |
